Values quoted from earlier work as cited in patent US6153653A, “Choline compositions and uses thereof” (Protarga, Inc., priority 1997, dated 2000).

Conditions: relative to native tPA

B1: C84S tPA: tPA variants in which a cysteine at position 84 of the growth factor domain of native tPA is replaced by serine (protein, UniProt P00750 36-562, looked up, variant C84S)
Tissue-type plasminogen …: SYQVICRDEKTQMIYQQHQSWLRPVLRSNRVEYCWCNSGRAQCHSVPVKSCSEPRCFNGGTCQQALYFSDFVCQCPEGFAGKCSEIDTRATCYEDQGISYRGTWSTAESGAECTNWNSSALAQKPYSGRRPDAIRLGLGNHNYCRNPDRDSKPWCYVFKAGKYSSEFCSTPACSEGNSDCYFGNGSAYRGTHSLTESGASCLPWNSMILIGKVYTAQNPSAQALGLGKHNYCRNPDGDAKPWCHVLKNRRLTWEYCDVPSCSTCGLRQYSQPQFRIKGGLFADIASHPWQAAIFAKHRRSPGERFLCGGILISSCWILSAAHCFQERFPPHHLTVILGRTYRVVPGEEEQKFEVEKYIVHKEFDDDTYDNDIALLQLKSDSSRCAQESSVVRTVCLPPADLQLPDWTECELSGYGKHEALSPFYSERLKEAHVRLYPSSRCTSQHLLNRTVTDNMLCAGDTRSGGPQANLHDACQGDSGGPLVCLNDGRMTLVGIISWGLGCGQKDVPGVYTKVTNYLDWIRDNMRP
For B1, the “in vivo half life (in words)” value (in vivo) is listed as “longer in vivo half life than native tPA” and the “functional activity (in words)” value is listed as “retains the functional activity of native tPA”.
